Measurements published in the supplement of paper PMC10065799, “High-throughput profiling of sequence recognition by tyrosine kinases and SH2 domains using bacterial peptide display” (eLife, 2023).

Legend:
AncSZ = assay: phosphorylation enrichment, bacterial display (enrichment ratio); higher = better substrate or ligand; peptides without Tyr show the background
EPHB1 = EPHB1 (UniProt P54762); assay: as above
EPHB2 = EPHB2 (UniProt P29323); assay: as above
FGFR1 = FGFR1 (UniProt P11362); assay: as above
Chain of FGFR1 (P11362 whole entry, looked up): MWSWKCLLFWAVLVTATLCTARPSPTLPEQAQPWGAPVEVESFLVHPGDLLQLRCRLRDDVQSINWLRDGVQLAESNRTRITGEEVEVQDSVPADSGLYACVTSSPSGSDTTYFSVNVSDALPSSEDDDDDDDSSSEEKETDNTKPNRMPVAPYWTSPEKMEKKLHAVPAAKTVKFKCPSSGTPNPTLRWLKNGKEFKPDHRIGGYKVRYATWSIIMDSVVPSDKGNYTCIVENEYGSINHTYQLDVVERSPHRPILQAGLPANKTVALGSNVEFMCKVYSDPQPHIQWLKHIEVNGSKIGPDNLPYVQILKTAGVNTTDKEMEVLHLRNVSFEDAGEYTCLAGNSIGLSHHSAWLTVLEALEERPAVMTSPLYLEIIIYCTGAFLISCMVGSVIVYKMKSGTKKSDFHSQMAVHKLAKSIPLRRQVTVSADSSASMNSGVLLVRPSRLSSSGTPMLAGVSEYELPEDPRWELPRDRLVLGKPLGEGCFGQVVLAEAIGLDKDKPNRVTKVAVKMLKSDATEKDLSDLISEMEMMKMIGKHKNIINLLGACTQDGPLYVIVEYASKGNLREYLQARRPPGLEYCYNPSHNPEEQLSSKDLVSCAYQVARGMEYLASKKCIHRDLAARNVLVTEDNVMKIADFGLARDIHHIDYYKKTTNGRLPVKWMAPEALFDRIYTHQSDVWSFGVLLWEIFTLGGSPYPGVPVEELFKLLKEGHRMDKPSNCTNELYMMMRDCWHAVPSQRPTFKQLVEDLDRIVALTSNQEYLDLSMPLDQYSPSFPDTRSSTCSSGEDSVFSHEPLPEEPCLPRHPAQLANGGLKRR

FGFR3 = FGFR3 (UniProt P22607); assay: as above
Chain of FGFR3 (P22607 whole entry, looked up): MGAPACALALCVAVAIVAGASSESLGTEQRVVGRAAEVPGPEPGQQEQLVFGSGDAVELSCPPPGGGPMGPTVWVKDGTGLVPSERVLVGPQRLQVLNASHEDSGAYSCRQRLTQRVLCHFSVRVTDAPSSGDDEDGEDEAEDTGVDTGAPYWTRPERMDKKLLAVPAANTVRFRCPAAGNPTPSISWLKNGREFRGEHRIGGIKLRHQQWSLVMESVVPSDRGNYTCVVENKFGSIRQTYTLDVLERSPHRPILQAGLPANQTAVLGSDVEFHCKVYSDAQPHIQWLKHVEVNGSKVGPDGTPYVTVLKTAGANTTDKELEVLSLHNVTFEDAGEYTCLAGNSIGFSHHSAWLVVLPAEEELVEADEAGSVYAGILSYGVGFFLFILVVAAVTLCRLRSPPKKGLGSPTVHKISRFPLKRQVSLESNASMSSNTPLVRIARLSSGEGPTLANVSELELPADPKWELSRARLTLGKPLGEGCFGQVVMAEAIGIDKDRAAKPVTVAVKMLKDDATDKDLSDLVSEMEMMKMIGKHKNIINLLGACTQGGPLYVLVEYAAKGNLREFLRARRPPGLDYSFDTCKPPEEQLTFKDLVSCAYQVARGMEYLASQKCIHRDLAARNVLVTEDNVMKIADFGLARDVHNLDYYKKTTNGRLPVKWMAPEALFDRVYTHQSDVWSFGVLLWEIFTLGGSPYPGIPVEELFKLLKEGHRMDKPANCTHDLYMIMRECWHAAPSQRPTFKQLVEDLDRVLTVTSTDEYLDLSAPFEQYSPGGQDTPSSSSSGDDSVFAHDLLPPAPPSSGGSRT

Fer (mouse) = assay: as above
Fes = Fes (UniProt P07332); assay: as above
Fyn = Fyn (UniProt P06241); assay: as above
Hck = Hck (UniProt P08631); assay: as above
Jak2 = Jak2 (UniProt O60674); assay: as above
MERTK = MERTK (UniProt Q12866); assay: as above
Chain of MERTK (Q12866 whole entry, looked up): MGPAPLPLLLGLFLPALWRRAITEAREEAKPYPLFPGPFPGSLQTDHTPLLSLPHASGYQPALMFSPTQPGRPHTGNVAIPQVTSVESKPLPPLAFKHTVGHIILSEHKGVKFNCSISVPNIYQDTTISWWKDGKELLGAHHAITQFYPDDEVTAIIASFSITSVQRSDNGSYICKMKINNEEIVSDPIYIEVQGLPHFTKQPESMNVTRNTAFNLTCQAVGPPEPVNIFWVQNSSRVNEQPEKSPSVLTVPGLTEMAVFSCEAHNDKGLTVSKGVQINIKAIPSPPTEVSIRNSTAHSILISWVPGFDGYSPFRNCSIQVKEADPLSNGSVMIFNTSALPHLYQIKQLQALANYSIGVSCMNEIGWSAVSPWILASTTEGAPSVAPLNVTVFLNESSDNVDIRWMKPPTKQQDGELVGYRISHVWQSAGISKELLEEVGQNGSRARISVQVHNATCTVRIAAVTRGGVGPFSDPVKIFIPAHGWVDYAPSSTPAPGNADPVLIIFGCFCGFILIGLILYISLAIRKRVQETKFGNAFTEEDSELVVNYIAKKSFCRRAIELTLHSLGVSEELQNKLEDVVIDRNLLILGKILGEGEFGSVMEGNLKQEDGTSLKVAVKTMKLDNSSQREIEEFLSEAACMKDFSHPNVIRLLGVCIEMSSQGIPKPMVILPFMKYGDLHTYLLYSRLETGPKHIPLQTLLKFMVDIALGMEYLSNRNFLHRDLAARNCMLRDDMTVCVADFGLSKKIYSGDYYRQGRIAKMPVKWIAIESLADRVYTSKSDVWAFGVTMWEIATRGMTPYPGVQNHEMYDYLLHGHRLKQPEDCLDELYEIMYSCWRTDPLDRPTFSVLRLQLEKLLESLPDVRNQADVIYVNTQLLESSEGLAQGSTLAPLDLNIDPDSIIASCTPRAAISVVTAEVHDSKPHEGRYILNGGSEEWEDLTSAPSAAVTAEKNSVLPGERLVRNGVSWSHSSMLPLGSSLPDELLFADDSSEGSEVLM

c-Abl (mouse) = assay: as above
c-Src = assay: as above
Grb2 SH2 = Grb2 SH2 (UniProt P62993); assay: SH2 binding enrichment of the phosphorylated peptide, bacterial display (enrichment ratio); higher = better substrate or ligand; peptides without Tyr show the background
SHP2-C SH2 = assay: as above
c-Src SH2 = assay: as above
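Throughout, for SH2 binding enrichment of the phosphorylated peptide, bacterial display: peptide library displayed on the E. coli surface as eCPX fusions, selected cells deep-sequenced, score is each peptide's frequency after selection divided by its frequency in the input.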
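Throughout, for phosphorylation enrichment, bacterial display: 11-residue human phosphosite peptides and single-mutation variants displayed on the E. coli surface, counted by deep sequencing, each peptide's frequency after selection divided by its frequency in the unselected input library; frequency after pTyr selection over input frequency; kinase dosed for 20-30% of maximal phosphorylation in three min.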

Chain of EPHB1 (P54762 whole entry, looked up): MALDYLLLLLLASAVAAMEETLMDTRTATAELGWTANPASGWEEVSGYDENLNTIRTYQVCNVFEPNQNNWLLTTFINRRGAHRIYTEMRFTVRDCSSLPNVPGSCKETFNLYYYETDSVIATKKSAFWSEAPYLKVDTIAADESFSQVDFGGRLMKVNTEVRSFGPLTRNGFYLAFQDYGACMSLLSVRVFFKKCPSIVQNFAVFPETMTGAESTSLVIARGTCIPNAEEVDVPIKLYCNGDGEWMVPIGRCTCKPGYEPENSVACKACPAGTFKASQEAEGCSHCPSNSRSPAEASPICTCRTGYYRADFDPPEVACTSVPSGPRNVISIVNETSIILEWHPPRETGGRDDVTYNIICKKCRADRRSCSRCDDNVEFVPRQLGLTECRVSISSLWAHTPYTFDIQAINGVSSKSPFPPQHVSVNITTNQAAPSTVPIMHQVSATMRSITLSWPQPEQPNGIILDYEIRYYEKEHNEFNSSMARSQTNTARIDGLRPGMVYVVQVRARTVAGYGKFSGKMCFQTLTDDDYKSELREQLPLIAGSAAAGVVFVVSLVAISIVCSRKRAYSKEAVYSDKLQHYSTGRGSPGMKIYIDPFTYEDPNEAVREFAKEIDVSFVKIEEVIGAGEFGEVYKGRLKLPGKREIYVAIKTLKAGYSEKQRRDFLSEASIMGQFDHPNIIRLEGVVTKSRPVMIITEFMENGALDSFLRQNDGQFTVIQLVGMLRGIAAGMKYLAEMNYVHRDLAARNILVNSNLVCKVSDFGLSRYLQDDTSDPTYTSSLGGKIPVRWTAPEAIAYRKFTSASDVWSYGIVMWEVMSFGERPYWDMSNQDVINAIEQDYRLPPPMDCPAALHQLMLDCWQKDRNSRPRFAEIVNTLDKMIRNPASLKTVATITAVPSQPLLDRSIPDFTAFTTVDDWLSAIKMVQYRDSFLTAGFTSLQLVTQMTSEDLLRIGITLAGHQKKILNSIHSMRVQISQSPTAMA
Chain of EPHB2 (P29323 whole entry, looked up): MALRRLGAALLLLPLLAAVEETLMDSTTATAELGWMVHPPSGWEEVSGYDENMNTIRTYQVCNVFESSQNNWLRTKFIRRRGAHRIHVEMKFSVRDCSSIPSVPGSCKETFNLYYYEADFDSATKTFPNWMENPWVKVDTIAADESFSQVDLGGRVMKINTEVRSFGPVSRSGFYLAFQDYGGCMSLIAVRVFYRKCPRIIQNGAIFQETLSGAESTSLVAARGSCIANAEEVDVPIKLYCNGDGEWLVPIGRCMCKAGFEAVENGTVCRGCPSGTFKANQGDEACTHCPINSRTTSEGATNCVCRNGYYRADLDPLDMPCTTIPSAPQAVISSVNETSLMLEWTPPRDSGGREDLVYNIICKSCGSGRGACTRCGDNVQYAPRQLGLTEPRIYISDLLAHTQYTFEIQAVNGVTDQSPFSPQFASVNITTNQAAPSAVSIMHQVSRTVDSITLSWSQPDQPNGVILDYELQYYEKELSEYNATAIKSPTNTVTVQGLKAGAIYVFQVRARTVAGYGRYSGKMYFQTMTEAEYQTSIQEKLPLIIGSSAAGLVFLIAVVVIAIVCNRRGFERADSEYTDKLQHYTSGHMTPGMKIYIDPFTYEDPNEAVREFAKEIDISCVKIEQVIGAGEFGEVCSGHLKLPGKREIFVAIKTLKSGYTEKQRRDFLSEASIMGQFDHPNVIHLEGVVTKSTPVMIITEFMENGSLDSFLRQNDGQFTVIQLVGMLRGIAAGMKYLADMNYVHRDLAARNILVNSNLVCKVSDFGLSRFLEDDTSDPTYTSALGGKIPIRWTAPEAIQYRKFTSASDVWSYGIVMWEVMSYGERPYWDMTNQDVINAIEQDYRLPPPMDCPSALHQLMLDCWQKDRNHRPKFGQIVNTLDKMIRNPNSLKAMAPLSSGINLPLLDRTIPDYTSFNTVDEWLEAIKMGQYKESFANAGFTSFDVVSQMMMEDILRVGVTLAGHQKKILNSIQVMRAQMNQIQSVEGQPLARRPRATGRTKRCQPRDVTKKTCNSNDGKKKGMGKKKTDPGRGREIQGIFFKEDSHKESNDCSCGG

SH2 binding enrichment (Grb2 SH2) | SH2 binding enrichment (SHP2-C SH2) | SH2 binding enrichment (c-Src SH2) | Sequence | phosphorylation enrichment (AncSZ) | phosphorylation enrichment (EPHB1) | phosphorylation enrichment (EPHB2) | phosphorylation enrichment (FGFR1) | phosphorylation enrichment (FGFR3) | phosphorylation enrichment (Fer (mouse)) | phosphorylation enrichment (Fes) | phosphorylation enrichment (Fyn) | phosphorylation enrichment (Hck) | phosphorylation enrichment (Jak2) | phosphorylation enrichment (MERTK) | phosphorylation enrichment (c-Abl (mouse)) | phosphorylation enrichment (c-Src)
1.05 | 0.842 | 0.801 | RNEAFYDTFST [EFCAB3_Y372_S370A] | 1.32 | 1.98 | 3.35 | 0.652 | 0.811 | 7.96 | 1.14 | 11.3 | 10.2 | 1.46 | 14.4 | 4.17 | 10
0.818 | 0.713 | 0.552 | EFITRYIDSLK [PSMA7_Y110_A112D_YF] | 0.785 | 0.425 | 0.493 | 0.558 | 0.639 | 0.426 | 0.878 | 0.526 | 0.501 | 0.733 | 0.479 | 0.483 | 0.456
1.12 | 1.19 | 0.833 | GSSKIYFLHAD [TLR5_Y108_P112A] | 0.862 | 0.492 | 0.557 | 0.8 | 0.731 | 0.423 | 0.984 | 0.951 | 0.712 | 0.954 | 0.797 | 0.579 | 0.893
1.12 | 0.893 | 0.661 | FGLTLYPNSRE [MEP1A_Y472_V469L] | 0.911 | 0.55 | 0.56 | 0.682 | 0.698 | 0.413 | 1.09 | 0.471 | 0.397 | 0.68 | 0.385 | 0.629 | 0.394
1.15 | 0.566 | 0.422 | FFRRHYPLTTL [TNS4_Y644] | 0.995 | 0.408 | 0.497 | 0.426 | 0.467 | 0.455 | 0.917 | 0.426 | 0.399 | 0.876 | 0.491 | 0.587 | 0.516
0.657 | 1.15 | 0.629 | YSTSPYLLEAA [BRIP1_Y921] | 0.887 | 0.544 | 0.518 | 0.551 | 0.604 | 0.53 | 0.931 | 4.67 | 1.08 | 0.694 | 1.38 | 0.959 | 2.21
0.62 | 0.596 | 0.46 | SVTCTYSRALN [TP53_Y126_P128R] | 1.09 | 0.626 | 0.602 | 0.461 | 0.796 | 0.5 | 1.28 | 0.429 | 0.523 | 1.07 | 0.401 | 0.916 | 0.494
0.767 | 0.562 | 0.444 | ATPKGYERDAS [OTC_Y223_P225R] | 0.591 | 0.358 | 0.522 | 0.462 | 0.471 | 0.518 | 0.68 | 0.442 | 0.399 | 0.551 | 0.447 | 0.421 | 0.369
0.734 | 0.574 | 0.678 | HCFNSYTFPRL [PAK7_Y316_S312C_YF] | 1.94 | 0.752 | 0.743 | 0.713 | 0.978 | 0.804 | 1.72 | 0.707 | 0.564 | 1.31 | 0.591 | 0.795 | 0.469
0.693 | 0.566 | 0.49 | FMFKVYSDPQP [FGFR1_Y280_C277Y_YF] | 1.54 | 1.08 | 0.845 | 0.572 | 1.08 | 0.679 | 1.68 | 0.596 | 0.667 | 1.49 | 0.438 | 1.16 | 0.398
0.765 | 0.893 | 0.527 | NDQANYLLNTD [ADA_Y290_S291L] | 0.987 | 0.558 | 0.56 | 0.432 | 0.601 | 0.379 | 0.968 | 0.491 | 0.469 | 0.934 | 0.395 | 0.681 | 0.468
0.915 | 0.72 | 0.991 | KAESWYQTKFE [KRT75_Y342_E337K_YF] | 0.873 | 0.567 | 0.482 | 0.468 | 0.538 | 0.594 | 1.07 | 0.518 | 0.543 | 0.871 | 0.6 | 0.839 | 0.662
0.594 | 0.441 | 0.341 | RLRKYYLGKYL [KLB_Y906] | 0.601 | 0.429 | 0.661 | 0.584 | 0.528 | 0.538 | 0.728 | 0.707 | 0.571 | 0.662 | 0.73 | 0.454 | 0.701
0.779 | 0.917 | 0.593 | RSRSSYTHGLN [MYCT1_Y116] | 1.42 | 1 | 0.882 | 0.588 | 0.88 | 0.705 | 1.35 | 0.956 | 0.935 | 0.916 | 0.883 | 0.981 | 1.23
0.788 | 0.674 | 0.393 | SMAKFYASEIA [ACADSB_Y373_YF] | 0.686 | 0.403 | 0.472 | 0.513 | 0.604 | 0.61 | 0.803 | 0.434 | 0.518 | 0.619 | 0.437 | 0.588 | 0.464
1.3 | 1.19 | 2.76 | KGIQLYDTPFE [SHB_Y297_YF] | 1.13 | 8.6 | 12.9 | 0.511 | 0.584 | 2.8 | 0.911 | 0.712 | 1.73 | 0.843 | 4.56 | 0.965 | 0.729
0.868 | 0.551 | 0.498 | LDVDVYGPSVP [NUBPL_Y109] | 1.06 | 0.622 | 0.536 | 0.483 | 0.72 | 1.2 | 1.28 | 1.47 | 1.77 | 0.829 | 0.498 | 1.4 | 1.33

SH2 binding enrichment (Grb2 SH2) | SH2 binding enrichment (SHP2-C SH2) | SH2 binding enrichment (c-Src SH2) | Sequence | phosphorylation enrichment (AncSZ) | phosphorylation enrichment (EPHB1) | phosphorylation enrichment (EPHB2) | phosphorylation enrichment (FGFR1) | phosphorylation enrichment (FGFR3) | phosphorylation enrichment (Fer (mouse)) | phosphorylation enrichment (Fes) | phosphorylation enrichment (Fyn) | phosphorylation enrichment (Hck) | phosphorylation enrichment (Jak2) | phosphorylation enrichment (MERTK) | phosphorylation enrichment (c-Abl (mouse)) | phosphorylation enrichment (c-Src)
1.03 | 1 | 1.11 | LLREWYVQDPF [SIX3_Y225_L226V_YF] | 0.961 | 0.673 | 0.621 | 0.766 | 0.998 | 0.576 | 0.977 | 0.438 | 0.522 | 0.892 | 0.443 | 0.528 | 0.466
1 | 0.769 | 0.588 | KVGPGYLGSRG [RET_Y826_G830R] | 0.402 | 0.302 | 0.345 | 0.318 | 0.339 | 0.328 | 0.55 | 0.329 | 0.327 | 0.439 | 0.457 | 0.444 | 0.366
0.712 | 0.672 | 0.477 | EAIMTYVSSFY [ACTN4_Y260_K255E] | 1.14 | 0.617 | 0.631 | 0.459 | 0.693 | 0.445 | 1.12 | 0.503 | 0.631 | 1.06 | 0.457 | 0.708 | 0.855
0.641 | 0.607 | 0.521 | ALWYIYLHTRS [ENG_Y614_S615L] | 1.1 | 0.542 | 0.476 | 0.62 | 0.821 | 0.514 | 1.39 | 0.432 | 0.384 | 1.09 | 0.352 | 0.733 | 0.331
0.863 | 1.59 | 1.92 | KHMADYPDCKY [SOX11_Y113_Y116C] | 0.65 | 0.483 | 0.783 | 0.635 | 1.31 | 0.504 | 1.01 | 0.251 | 0.55 | 1.07 | 0.375 | 1.36 | 0.368
0.702 | 0.674 | 0.337 | VSLEAYCKHKF [RXRA_Y403_A398V_YF] | 0.949 | 0.571 | 0.509 | 0.392 | 0.568 | 0.411 | 1.07 | 0.399 | 0.353 | 1.11 | 0.443 | 0.898 | 0.556
0.942 | 0.855 | 0.529 | IEDPFYGNDSD [ACP1_Y133_YF] | 1.51 | 0.782 | 0.65 | 0.643 | 0.966 | 0.755 | 1.55 | 0.556 | 0.628 | 2.17 | 0.487 | 1.1 | 0.75
0.953 | 0.688 | 0.63 | AGQKDYDRLRP [RAC3_Y64_E62K] | 0.662 | 0.501 | 0.543 | 0.462 | 0.572 | 0.787 | 0.761 | 0.52 | 0.47 | 0.546 | 0.358 | 0.627 | 0.36
0.902 | 0.916 | 0.775 | ETDTRYFDEEF [AKT1_Y437] | 1.32 | 0.633 | 0.714 | 0.567 | 0.81 | 0.563 | 1.29 | 0.544 | 0.665 | 1.37 | 0.527 | 0.875 | 0.679
0.851 | 0.698 | 1.28 | MKVPVYETPAG [PGM5_Y358] | 1.57 | 11.7 | 18.2 | 0.492 | 0.649 | 11.6 | 1.08 | 6.27 | 7.86 | 0.903 | 5.35 | 18.2 | 5.2
0.692 | 0.739 | 0.532 | GPTLSYGRDGR [MATR3_Y158] | 0.435 | 0.276 | 0.347 | 0.363 | 0.377 | 0.306 | 0.526 | 0.33 | 0.379 | 0.449 | 0.488 | 0.369 | 0.332
0.76 | 0.697 | 0.65 | GKAFIYASHIV [ZNF573_Y229] | 0.802 | 0.557 | 0.42 | 0.427 | 0.602 | 1.16 | 1 | 0.666 | 0.604 | 0.869 | 0.408 | 0.996 | 1.21
3.88 | 0.51 | 2.14 | MNKNAYHNVTA [ST3GAL6_Y306] | 0.524 | 0.686 | 0.341 | 0.499 | 0.451 | 0.379 | 0.52 | 0.519 | 0.46 | 0.443 | 0.404 | 0.465 | 0.331
0.746 | 0.802 | 0.642 | QKLPLYILENN [VPS13B_Y2774_S2773L] | 0.967 | 0.942 | 0.607 | 0.81 | 0.761 | 0.551 | 1.28 | 0.556 | 0.709 | 1.06 | 0.758 | 1 | 0.964
0.705 | 0.62 | 0.363 | TGNGFYFRVFS [MYBPC3_Y1136_I1131T_YF] | 1.1 | 0.65 | 0.517 | 0.433 | 0.763 | 0.543 | 1.33 | 0.393 | 0.456 | 1.32 | 0.36 | 0.929 | 0.374
1.25 | 1.47 | 1.13 | FPQARYHWLVL [APTX_Y214_K211Q_YF] | 0.913 | 0.568 | 0.597 | 1.92 | 1.48 | 0.539 | 1.22 | 0.459 | 0.543 | 1.28 | 1.24 | 0.858 | 0.522
